Experimental data taken from patent US20150359907A1 (GENISPHERE, published 2015).
Ends that are not written are not given here.

Molecular target: T1, transferrin receptor (TfR/CD71) on TfR-expressing LAPC-4 cells (human, UniProt P02786 1-760)
T1 construct: whole, on cells
Experiment: binding of dendrimer to cells in vitro; method not detailed

T1 sequence (P02786 whole entry): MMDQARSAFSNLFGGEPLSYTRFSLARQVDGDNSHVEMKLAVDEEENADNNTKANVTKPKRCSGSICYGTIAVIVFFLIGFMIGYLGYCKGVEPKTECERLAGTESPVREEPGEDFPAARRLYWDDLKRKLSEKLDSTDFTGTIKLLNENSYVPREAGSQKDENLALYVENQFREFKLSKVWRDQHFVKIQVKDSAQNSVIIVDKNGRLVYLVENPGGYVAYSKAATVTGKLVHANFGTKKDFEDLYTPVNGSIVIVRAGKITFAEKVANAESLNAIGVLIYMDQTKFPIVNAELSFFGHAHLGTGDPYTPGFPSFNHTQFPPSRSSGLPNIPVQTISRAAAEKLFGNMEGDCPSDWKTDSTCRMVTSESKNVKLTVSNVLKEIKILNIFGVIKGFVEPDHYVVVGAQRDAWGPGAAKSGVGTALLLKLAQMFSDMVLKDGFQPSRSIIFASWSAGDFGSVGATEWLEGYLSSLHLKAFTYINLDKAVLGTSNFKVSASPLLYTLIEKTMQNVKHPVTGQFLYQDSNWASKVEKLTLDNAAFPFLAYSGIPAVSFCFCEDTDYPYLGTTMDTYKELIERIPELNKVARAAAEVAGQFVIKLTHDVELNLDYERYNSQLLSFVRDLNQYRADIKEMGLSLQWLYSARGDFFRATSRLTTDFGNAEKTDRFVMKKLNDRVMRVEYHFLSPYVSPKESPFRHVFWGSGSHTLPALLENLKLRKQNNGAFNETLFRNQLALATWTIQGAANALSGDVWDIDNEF

binding result: binds
B1: TfR peptide-derivatized dendrimer (transferrin receptor (TfR/CD71) targeting peptide THRPPMWSPVWP on a 2-layer DNA dendrimer) (peptide)
peptide: THRPPMWSPVWP
modifications: also: coupled to oligonucleotide cplCap03 on a DNA dendrimer, site not given here
notes: The peptide-oligonucleotide conjugate was hybridised to capture oligonucleotides on a Cy3-labelled 2-layer DNA dendrimer carrying a ligated plasmid; About 2-5 peptides per dendrimer molecule; The protein part is only the 12-mer peptide; also called TfR targeting peptide; 2n-Cy3 3DNA-TfR peptide-K5/CFP
